Data taken from PMC9282251.

T1: GFP-tagged Kif4A (human), O95239
T1 chain: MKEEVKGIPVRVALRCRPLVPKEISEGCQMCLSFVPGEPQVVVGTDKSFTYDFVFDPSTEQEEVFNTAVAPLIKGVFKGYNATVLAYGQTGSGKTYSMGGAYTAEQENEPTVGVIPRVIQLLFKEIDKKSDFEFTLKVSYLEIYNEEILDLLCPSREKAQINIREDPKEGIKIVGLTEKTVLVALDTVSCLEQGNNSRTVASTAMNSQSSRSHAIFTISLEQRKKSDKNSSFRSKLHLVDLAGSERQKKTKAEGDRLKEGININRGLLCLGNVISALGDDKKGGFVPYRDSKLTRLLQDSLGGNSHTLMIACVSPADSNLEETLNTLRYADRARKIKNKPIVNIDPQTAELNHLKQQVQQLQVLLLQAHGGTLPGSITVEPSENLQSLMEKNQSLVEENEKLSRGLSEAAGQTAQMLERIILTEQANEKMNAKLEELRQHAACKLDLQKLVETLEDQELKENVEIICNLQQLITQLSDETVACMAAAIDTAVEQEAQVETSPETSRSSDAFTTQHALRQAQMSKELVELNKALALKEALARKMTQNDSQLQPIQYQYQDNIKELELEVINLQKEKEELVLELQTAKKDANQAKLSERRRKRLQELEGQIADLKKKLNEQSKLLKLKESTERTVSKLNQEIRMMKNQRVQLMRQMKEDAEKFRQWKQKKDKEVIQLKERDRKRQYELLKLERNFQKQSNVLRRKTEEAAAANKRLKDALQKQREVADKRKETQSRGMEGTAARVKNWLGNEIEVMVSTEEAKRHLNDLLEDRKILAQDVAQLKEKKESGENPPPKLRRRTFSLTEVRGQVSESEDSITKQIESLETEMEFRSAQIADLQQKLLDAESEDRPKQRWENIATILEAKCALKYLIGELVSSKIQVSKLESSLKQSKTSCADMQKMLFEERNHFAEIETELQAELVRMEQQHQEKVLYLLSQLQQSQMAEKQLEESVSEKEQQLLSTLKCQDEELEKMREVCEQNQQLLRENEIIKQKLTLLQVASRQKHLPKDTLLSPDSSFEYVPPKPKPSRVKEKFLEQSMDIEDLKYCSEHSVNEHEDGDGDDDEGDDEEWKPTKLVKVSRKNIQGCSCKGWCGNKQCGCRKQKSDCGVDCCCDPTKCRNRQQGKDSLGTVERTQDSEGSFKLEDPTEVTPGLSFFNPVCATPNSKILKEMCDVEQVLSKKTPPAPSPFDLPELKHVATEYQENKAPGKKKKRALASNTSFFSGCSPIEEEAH

T2: Kif4A-mCherry (human), O95239
T2 chain: T1 chain

B1: GFP-tagged Kif4A, O95239 1-1232 (natural protein)
chain: T1 chain
B2: Kif4A-mCherry, O95239 1-1232 (natural protein)
chain: T1 chain

Experiments:
[1] = biological target: T1, GFP-tagged Kif4A (human), O95239; assay: single-molecule photobleaching and fluorescence intensity analysis; conditions: remark: other sources report otherwise
[2] = biological target: T2, Kif4A-mCherry (human), O95239; assay: as above; conditions: remark: other sources report otherwise

Binder	stoichiometry N [1]	stoichiometry N [2]
B1	2	–
B2	–	2
